Earlier results on two substances are cited in article PMC5668312.

For data set [1], the target named is Vps2 (Saccharomyces cerevisiae) (UniProt P36108).
A further data set addresses CHMP1B (Homo sapiens) (UniProt Q7LBR1).

Vps4 MIT, sequence (P52917 1-83): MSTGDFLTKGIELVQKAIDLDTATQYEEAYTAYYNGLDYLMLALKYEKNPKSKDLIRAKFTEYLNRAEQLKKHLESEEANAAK
spastin MIT, sequence (Q9UBP0 117-198): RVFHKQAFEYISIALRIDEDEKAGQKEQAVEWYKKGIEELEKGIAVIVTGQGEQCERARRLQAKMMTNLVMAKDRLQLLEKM
Vps2 (Saccharomyces cerevisiae), sequence (P36108 whole entry): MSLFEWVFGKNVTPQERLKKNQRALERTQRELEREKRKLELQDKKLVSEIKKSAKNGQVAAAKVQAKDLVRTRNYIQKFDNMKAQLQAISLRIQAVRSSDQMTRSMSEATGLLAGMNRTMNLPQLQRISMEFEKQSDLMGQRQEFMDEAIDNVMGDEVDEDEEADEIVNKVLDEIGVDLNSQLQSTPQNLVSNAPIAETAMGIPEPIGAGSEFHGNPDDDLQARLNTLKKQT
CHMP1B (Homo sapiens), sequence (Q7LBR1 whole entry): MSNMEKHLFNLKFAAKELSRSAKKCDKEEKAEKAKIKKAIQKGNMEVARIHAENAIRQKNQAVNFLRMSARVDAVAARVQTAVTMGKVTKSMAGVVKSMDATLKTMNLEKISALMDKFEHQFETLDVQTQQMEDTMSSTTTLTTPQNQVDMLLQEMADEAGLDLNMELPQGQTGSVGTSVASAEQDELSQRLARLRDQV

A word on the Kd: it is the equilibrium constant for the complex coming apart. As to Vps4 MIT (from UniProt P52917), in data set [1], the Kd is 30 µM.

As for spastin MIT (from UniProt Q9UBP0), in the data set with CHMP1B (Homo sapiens), the Kd was 12 µM.
